Measurements reported in US6759384.
No end group written: not given here.

T1: human factor Xa (Enzyme Research Laboratories, Inc.) (human), P00742
T1 chain 1: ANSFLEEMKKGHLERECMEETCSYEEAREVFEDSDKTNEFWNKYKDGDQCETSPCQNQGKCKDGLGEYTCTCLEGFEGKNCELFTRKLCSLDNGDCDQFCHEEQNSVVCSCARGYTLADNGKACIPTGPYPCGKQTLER
T1 chain 2: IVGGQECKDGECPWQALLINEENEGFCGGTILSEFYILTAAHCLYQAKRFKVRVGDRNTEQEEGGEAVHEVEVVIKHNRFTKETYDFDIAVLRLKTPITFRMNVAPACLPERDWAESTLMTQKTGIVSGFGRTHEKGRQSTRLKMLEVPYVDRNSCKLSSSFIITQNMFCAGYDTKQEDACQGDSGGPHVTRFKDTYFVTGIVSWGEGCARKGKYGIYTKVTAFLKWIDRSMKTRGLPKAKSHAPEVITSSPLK

B1: W-I-R-E-K-NH2 (peptide)
peptide: WIREK-NH2
B2: Ac-G-Y-I-R-G-NH2 (peptide)
peptide: Ac-GYIRG-NH2
B3: G-Y-I-R-G-NH2 (peptide)
peptide: GYIRG-NH2
B4: E-Y-I-R-K-NH2 (peptide)
peptide: EYIRK-NH2
B5: G-Y-I-R-K-NH2 (peptide)
peptide: GYIRK-NH2
B6: G-Y-I-R-T-NH2 (peptide)
peptide: GYIRT-NH2
B7: G-Y-I-R-L-NH2 (peptide)
peptide: GYIRL-NH2
B8: G-Y-I-R-H-NH2 (peptide)
peptide: GYIRH-NH2
B9: Ac-G-Y-I-R-L-NH2 (peptide)
peptide: Ac-GYIRL-NH2
B10: G-Y-I-R-G (peptide)
peptide: GYIRG
modifications: not checked
B11: G-Y-I-R-I-NH2 (peptide)
peptide: GYIRI-NH2

Target: T1, human factor Xa (Enzyme Research …)
Test: chromogenic FXa inhibition

Ki, < 100 µM:
B1, B2, B3, B4, B5, B6, B7, B8, B9, B10, B11
